Assay results from IntAct's records for PubMed 12117771.

B1: Cadherin-related family member 2 (Homo sapiens), Q9BYE9 (parent)
chain: MAQLWLSCFLLPALVVSVAANVAPKFLANMTSVILPEDLPVGAQAFWLVAEDQDNDPLTYGMSGPNAYFFAVTPKTGEVKLASALDYETLYTFKVTISVSDPYIQVQREMLVIVEDRNDNAPVFQNTAFSTSINETLPVGSVVFSVLAVDKDMGSAGMVVYSIEKVIPSTGDSEHLFRILANGSIVLNGSLSYNNKSAFYQLELKACDLGGMYHNTFTIQCSLPVFLSISVVDQPDLDPQFVREFYSASVAEDAAKGTSVLTVEAVDGDKGINDPVIYSISYSTRPGWFDIGADGVIRVNGSLDREQLLEADEEVQLQVTATETHLNIYGQEAKVSIWVTVRVMDVNDHKPEFYNCSLPACTFTPEEAQVNFTGYVDEHASPRIPIDDLTMVVYDPDKGSNGTFLLSLGGPDAEAFSVSPERAVGSASVQVLVRVSALVDYERQTAMAVQVVATDSVSQNFSVAMVTIHLRDINDHRPTFPQSLYVLTVPEHSATGSVVTDSIHATDPDTGAWGQITYSLLPGNGADLFQVDPVSGTVTVRNGELLDRESQAVYYLTLQATDGGNLSSSTTLQIHLLDINDNAPVVSGSYNIFVQEEEGNVSVTIQAHDNDEPGTNNSRLLFNLLPGPYSHNFSLDPDTGLLRNLGPLDREAIDPALEGRIVLTVLVSDCGEPVLGTKVNVTITVEDINDNLPIFNQSSYNFTVKEEDPGVLVGVVKAWDADQTEANNRISFSLSGSGANYFMIRGLVLGAGWAEGYLRLPPDVSLDYETQPVFNLTVSAENPDPQGGETIVDVCVNVKDVNDNPPTLDVASLRGIRVAENGSQHGQVAVVVASDVDTSAQLEIQLVNILCTKAGVDVGSLCWGWFSVAANGSVYINQSKAIDYEACDLVTLVVRACDLATDPGFQAYSNNGSLLITIEDVNDNAPYFLPENKTFVIIPELVLPNREVASVRARDDDSGNNGVILFSILRVDFISKDGATIPFQGVFSIFTSSEADVFAGSIQPVTSLDSTLQGTYQVTVQARDRPSLGPFLEATTTLNLFTVDQSYRSRLQFSTPKEEVGANRQAINAALTQATRTTVYIVDIQDIDSAARARPHSYLDAYFVFPNGSALTLDELSVMIRNDQDSLTQLLQLGLVVLGSQESQESDLSKQLISVIIGLGVALLLVLVIMTMAFVCVRKSYNRKLQAMKAAKEARKTAAGVMPSAPAIPGTNMYNTERANPMLNLPNKDLGLEYLSPSNDLDSVSVNSLDDNSVDVDKNSQEIKEHRPPHTPPEPDPEPLSVVLLGRQAGASGQLEGPSYTNAGLDTTDL

Variants of: B1
Conditions: with mast2_human MAST2, Q6P0Q8
mast2_human MAST2, Q6P0Q8, sequence (Q6P0Q8 whole entry): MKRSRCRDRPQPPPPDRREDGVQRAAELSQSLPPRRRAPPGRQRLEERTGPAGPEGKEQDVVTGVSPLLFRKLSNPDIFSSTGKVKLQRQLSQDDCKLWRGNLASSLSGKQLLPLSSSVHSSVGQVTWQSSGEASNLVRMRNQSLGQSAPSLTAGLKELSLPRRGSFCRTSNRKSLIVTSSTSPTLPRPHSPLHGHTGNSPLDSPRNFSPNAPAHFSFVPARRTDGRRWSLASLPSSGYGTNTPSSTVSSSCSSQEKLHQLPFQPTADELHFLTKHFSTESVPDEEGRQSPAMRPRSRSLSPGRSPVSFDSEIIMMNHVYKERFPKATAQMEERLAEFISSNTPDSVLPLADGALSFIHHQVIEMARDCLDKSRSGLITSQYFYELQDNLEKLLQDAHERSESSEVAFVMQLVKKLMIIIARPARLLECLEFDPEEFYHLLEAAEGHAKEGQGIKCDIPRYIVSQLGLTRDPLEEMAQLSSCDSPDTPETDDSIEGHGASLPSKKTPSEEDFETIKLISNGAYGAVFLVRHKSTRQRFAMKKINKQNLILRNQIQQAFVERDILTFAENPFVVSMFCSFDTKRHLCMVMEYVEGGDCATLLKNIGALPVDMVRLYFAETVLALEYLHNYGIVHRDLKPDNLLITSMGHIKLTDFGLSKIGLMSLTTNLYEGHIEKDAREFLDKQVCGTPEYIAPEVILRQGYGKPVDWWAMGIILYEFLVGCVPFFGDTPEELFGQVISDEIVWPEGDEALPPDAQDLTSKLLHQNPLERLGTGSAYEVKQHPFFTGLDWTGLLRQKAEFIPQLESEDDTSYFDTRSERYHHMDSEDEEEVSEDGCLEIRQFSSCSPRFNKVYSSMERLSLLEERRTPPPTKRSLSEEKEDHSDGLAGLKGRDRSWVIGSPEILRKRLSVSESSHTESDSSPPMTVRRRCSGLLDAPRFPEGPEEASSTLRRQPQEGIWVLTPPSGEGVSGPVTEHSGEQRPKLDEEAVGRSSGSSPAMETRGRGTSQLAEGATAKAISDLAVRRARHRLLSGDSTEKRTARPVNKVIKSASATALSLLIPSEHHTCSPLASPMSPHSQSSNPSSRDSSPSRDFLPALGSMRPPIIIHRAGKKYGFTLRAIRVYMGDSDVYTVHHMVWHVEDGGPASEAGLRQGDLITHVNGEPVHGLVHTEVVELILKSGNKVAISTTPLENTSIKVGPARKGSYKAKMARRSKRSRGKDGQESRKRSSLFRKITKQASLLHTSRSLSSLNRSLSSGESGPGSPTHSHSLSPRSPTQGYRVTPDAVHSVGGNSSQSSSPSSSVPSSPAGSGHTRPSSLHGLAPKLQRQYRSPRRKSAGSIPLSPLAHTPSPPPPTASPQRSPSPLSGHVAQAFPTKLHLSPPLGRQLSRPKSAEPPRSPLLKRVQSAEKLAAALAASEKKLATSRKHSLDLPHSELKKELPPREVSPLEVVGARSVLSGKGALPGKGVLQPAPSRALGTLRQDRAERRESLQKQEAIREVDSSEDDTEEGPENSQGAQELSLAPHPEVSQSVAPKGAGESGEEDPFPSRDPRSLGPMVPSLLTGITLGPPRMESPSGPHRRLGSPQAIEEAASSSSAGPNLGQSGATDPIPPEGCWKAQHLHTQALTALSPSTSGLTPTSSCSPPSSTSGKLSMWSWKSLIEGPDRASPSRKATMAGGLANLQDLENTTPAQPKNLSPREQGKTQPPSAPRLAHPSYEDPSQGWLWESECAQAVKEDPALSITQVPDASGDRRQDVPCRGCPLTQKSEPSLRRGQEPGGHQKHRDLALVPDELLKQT

| effect of a mutation on the interaction | Variant |
| --- | --- |
| decreasing interaction | L1310R |
